The values below come from patent US20200002421A1 (AbbVie / Abbott, published 2020).

Experiment [1] deals with T1, Human full length B7-H3 (human, UniProt Q5ZPR3 29-534).
T1 sequence: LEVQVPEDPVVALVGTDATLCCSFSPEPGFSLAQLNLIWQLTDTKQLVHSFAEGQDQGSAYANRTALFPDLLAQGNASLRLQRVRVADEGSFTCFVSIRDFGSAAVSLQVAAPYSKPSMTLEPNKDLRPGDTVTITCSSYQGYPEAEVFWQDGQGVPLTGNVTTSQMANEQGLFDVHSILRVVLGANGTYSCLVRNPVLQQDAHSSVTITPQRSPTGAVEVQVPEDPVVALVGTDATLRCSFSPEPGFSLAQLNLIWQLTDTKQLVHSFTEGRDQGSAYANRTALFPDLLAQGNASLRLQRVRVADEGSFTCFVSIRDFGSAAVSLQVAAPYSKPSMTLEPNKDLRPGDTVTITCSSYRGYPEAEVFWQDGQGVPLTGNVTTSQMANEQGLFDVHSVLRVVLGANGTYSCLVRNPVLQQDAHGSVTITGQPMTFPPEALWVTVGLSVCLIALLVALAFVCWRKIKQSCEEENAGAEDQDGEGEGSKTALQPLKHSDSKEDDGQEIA
In words: cell-based or functional assay.

For experiment [2], the target named is T2, Cynomolgous B7-H3 on cells (cynomolgus).
T2 construct: whole, on cells; also called cyno B7-H3; cyB7-H3
In words: FACS, 3T12 transfectants.

Experiment [3] addresses T3, hB7-H3 (ELISA antigen of Tables 17 and 20) (human, UniProt Q5ZPR3 29-466, limits assumed).
T3 sequence: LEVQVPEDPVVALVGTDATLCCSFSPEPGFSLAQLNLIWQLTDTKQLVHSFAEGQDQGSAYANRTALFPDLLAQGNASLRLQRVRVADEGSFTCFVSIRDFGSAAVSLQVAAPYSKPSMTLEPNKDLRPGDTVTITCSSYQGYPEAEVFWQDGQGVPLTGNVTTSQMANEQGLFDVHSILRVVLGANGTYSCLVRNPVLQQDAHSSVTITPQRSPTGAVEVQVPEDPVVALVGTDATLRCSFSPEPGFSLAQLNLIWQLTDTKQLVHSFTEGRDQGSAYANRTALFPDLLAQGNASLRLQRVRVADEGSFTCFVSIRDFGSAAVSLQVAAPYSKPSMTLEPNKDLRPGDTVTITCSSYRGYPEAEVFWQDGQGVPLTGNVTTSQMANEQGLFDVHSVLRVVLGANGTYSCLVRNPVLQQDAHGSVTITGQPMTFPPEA
In words: ELISA.

For experiment [4], the target named is T1, Human full length B7-H3. In words: FACS, 3T12 transfectants.

B1: huAb3v2.6-XW (antibody, human IgG1, kappa, L234A L235A, V domains shown)
VH: EVQLVQSGAEVKKPGSSVKVSCKASGYTFSSYWMHWVRQAPGQGLEWIGLIHPESGSTNYNEMFKNRATLTVDRSTSTAYMELSSLRSEDTAVYYCAGGGRLYFDYWGQGTTVTVSS
VL: DIVMTQSPLSLPVTPGEPASISCRSSQSLVHSNQDTYLRWYLQKPGQSPQLLIYKVSNRFSGVPDRFSGSGSGTDFTLKISRVEAEDVGVYYCSQSTHVPYTFGGGTKVEIKR
modifications: synthon XW on interchain Cys
In the case of B1, the “EC50 nM H1650 (in vitro tumor cell cytotoxicity)” value (from here on “EC50 nM H1650”) with Human full length B7-H3 [1] was 2.4 nM.

B2: huAb3v2.6-SR (antibody, human IgG1, kappa, L234A L235A, V domains shown)
VH: EVQLVQSGAEVKKPGSSVKVSCKASGYTFSSYWMHWVRQAPGQGLEWIGLIHPESGSTNYNEMFKNRATLTVDRSTSTAYMELSSLRSEDTAVYYCAGGGRLYFDYWGQGTTVTVSS
VL: DIVMTQSPLSLPVTPGEPASISCRSSQSLVHSNQDTYLRWYLQKPGQSPQLLIYKVSNRFSGVPDRFSGSGSGTDFTLKISRVEAEDVGVYYCSQSTHVPYTFGGGTKVEIKR
modifications: synthon SR on interchain Cys
Take B2: the “EC50 nM H1650” value with Human full length B7-H3 [1] stood at 0.71 nM.

B3: huAb3v2.6-SE (antibody, human IgG1, kappa, L234A L235A, V domains shown)
VH: EVQLVQSGAEVKKPGSSVKVSCKASGYTFSSYWMHWVRQAPGQGLEWIGLIHPESGSTNYNEMFKNRATLTVDRSTSTAYMELSSLRSEDTAVYYCAGGGRLYFDYWGQGTTVTVSS
VL: DIVMTQSPLSLPVTPGEPASISCRSSQSLVHSNQDTYLRWYLQKPGQSPQLLIYKVSNRFSGVPDRFSGSGSGTDFTLKISRVEAEDVGVYYCSQSTHVPYTFGGGTKVEIKR
modifications: synthon SE on interchain Cys
Consider B3, for which the “EC50 nM H1650” value with Human full length B7-H3 [1] amounted to 1.01 nM.

B4: huAb3v2.6-KZ (antibody, human IgG1, kappa, L234A L235A, V domains shown)
VH: EVQLVQSGAEVKKPGSSVKVSCKASGYTFSSYWMHWVRQAPGQGLEWIGLIHPESGSTNYNEMFKNRATLTVDRSTSTAYMELSSLRSEDTAVYYCAGGGRLYFDYWGQGTTVTVSS
VL: DIVMTQSPLSLPVTPGEPASISCRSSQSLVHSNQDTYLRWYLQKPGQSPQLLIYKVSNRFSGVPDRFSGSGSGTDFTLKISRVEAEDVGVYYCSQSTHVPYTFGGGTKVEIKR
modifications: synthon KZ on interchain Cys
Regarding B4, the “EC50 nM H1650” value with Human full length B7-H3 [1] turned out to be 5.52 nM.

B5: huAb3v2.5 (antibody, human IgG1, kappa, L234A L235A, V domains shown)
VH: EVQLVQSGAEVKKPGSSVKVSCKASGYTFSSYWMHWVRQAPGQGLEWIGLIHPESGSTNYNEMFKNRATLTVDRSTSTAYMELSSLRSEDTAVYYCAGGGRLYFDYWGQGTTVTVSS
VL: DIVMTQSPLSLPVTPGEPASISCRSSQSLVHSNRDTYLRWYLQKPGQSPQLLIYKVSNRFSGVPDRFSGSGSGTDFTLKISRVEAEDVGVYYCSQSTHVPYTFGGGTKVEIKR
notes: Ig gamma-1 mutant / kappa
As for B5, the EC50 came out at 4.86 nM in experiment [2] and 0.13 nM in experiment [3].

B6: huAb3v2.2 (antibody, V domains shown)
VH: EVQLVQSGAEVKKPGSSVKVSCKASGYTFSSYWMHWVRQAPGQGLEWIGLIHPWSGSTNYNEMFKNRATLTVDRSTSTAYMELSSLRSEDTAVYYCAGGGRLYFDYWGQGTTVTVSS
VL: DIVMTQSPLSLPVTPGEPASISCRSSQSLVHSNRDTYLRWYLQKPGQSPQLLIYKVSNRFSGVPDRFSGSGSGTDFTLKISRVEAEDVGVYYCSQSTHVPYTFGGGTKVEIK
Take B6: the figures for the EC50 (in experiment [2]; with Human full length B7-H3 [4]; in experiment [3]) were 3.68 nM, 5.29 nM and 0.1 nM, respectively.

B7: huAb3v2.6-YG (antibody, human IgG1, kappa, L234A L235A, V domains shown)
VH: EVQLVQSGAEVKKPGSSVKVSCKASGYTFSSYWMHWVRQAPGQGLEWIGLIHPESGSTNYNEMFKNRATLTVDRSTSTAYMELSSLRSEDTAVYYCAGGGRLYFDYWGQGTTVTVSS
VL: DIVMTQSPLSLPVTPGEPASISCRSSQSLVHSNQDTYLRWYLQKPGQSPQLLIYKVSNRFSGVPDRFSGSGSGTDFTLKISRVEAEDVGVYYCSQSTHVPYTFGGGTKVEIKR
modifications: synthon YG on interchain Cys
Turning to B7, in the experiment with Human full length B7-H3 [1], the “EC50 nM H1650” value turned out to be 0.68 nM.

B8: huAb3v2.3 (antibody, V domains shown)
VH: EVQLVQSGAEVKKPGSSVKVSCKASGYTFSSYWMHWVRQAPGQGLEWIGLIHPWSGSTNYNEMFKNRATLTVDRSTSTAYMELSSLRSEDTAVYYCAGGGRLYFDYWGQGTTVTVSS
VL: DIVMTQSPLSLPVTPGEPASISCRSSQSLVHSNQDTYLRWYLQKPGQSPQLLIYKVSNRFSGVPDRFSGSGSGTDFTLKISRVEAEDVGVYYCSQSTHVPYTFGGGTKVEIK
Take B8: the figures for the 50% effective concentration (EC50) (in experiment [2]; with Human full length B7-H3 [4]; in experiment [3]) were 4.03 nM, 6.5 nM and 0.11 nM, respectively.

B9: huAb3v2 (antibody, V domains shown)
VH: EVQLVQSGAEVKKPGSSVKVSCKASGYTFSSYWMHWVRQAPGQGLEWIGLIHPDSGSTNYNEMFKNRATLTVDRSTSTAYMELSSLRSEDTAVYYCAGGGRLYFDYWGQGTTVTVSS
VL: DIVMTQSPLSLPVTPGEPASISCRSSQSLVHSNGDTYLRWYLQKPGQSPQLLIYKVSNRFSGVPDRFSGSGSGTDFTLKISRVEAEDVGVYYCSQSTHVPYTFGGGTKVEIK
For B9, the EC50 in experiment [2] turned out to be 2.87 nM; with Human full length B7-H3 [4] it was 5.11 nM; in experiment [3], 0.44 nM.

B10: huAb3v2.9 (antibody, V domains shown)
VH: EVQLVQSGAEVKKPGSSVKVSCKASGYTFSSYWMHWVRQAPGQGLEWIGLIHPISGSTNYNEMFKNRATLTVDRSTSTAYMELSSLRSEDTAVYYCAGGGRLYFDYWGQGTTVTVSS
VL: DIVMTQSPLSLPVTPGEPASISCRSSQSLVHSNQDTYLRWYLQKPGQSPQLLIYKVSNRFSGVPDRFSGSGSGTDFTLKISRVEAEDVGVYYCSQSTHVPYTFGGGTKVEIK
Take B10: the EC50 is 4.64 nM in experiment [2], 6.16 nM in the experiment with Human full length B7-H3 [4] and 0.16 nM in experiment [3].

B11: huAb3v2.6 (antibody, human IgG1, kappa, L234A L235A, V domains shown)
VH: EVQLVQSGAEVKKPGSSVKVSCKASGYTFSSYWMHWVRQAPGQGLEWIGLIHPESGSTNYNEMFKNRATLTVDRSTSTAYMELSSLRSEDTAVYYCAGGGRLYFDYWGQGTTVTVSS
VL: DIVMTQSPLSLPVTPGEPASISCRSSQSLVHSNQDTYLRWYLQKPGQSPQLLIYKVSNRFSGVPDRFSGSGSGTDFTLKISRVEAEDVGVYYCSQSTHVPYTFGGGTKVEIKR
notes: Ig gamma-1 mutant / kappa
Regarding B11, the EC50 was 3.31 nM in experiment [2], 5.64 nM in the experiment with Human full length B7-H3 [4] and 0.09 nM in experiment [3].

B12: huAb13v1-AAD (antibody, human IgG1, kappa, L234A L235A, V domains shown)
VH: EVQLQESGPGLVKPSETLSLTCAVTGYSITSGYSWHWIRQFPGNGLEWMGYIHSSGSTNYNPSLKSRISISRDTSKNQFFLKLSSVTAADTAVYYCAGYDDYFEYWGQGTTVTVSS
VL: DIQMTQSPSSLSASVGDRVTITCKASQNVGFNVAWYQQKPGKSPKALIYSASYRYSGVPSRFSGSGSGTDFTLTISSLQPEDFAEYFCQQYNWYPFTFGQGTKLEIKR
modifications: synthon AAD on interchain Cys
On to B12, for which the “EC50 nM H1650” value with Human full length B7-H3 [1] amounted to 0.21 nM.

B13: huAb13v1-WD (antibody, human IgG1, kappa, L234A L235A, V domains shown)
VH: EVQLQESGPGLVKPSETLSLTCAVTGYSITSGYSWHWIRQFPGNGLEWMGYIHSSGSTNYNPSLKSRISISRDTSKNQFFLKLSSVTAADTAVYYCAGYDDYFEYWGQGTTVTVSS
VL: DIQMTQSPSSLSASVGDRVTITCKASQNVGFNVAWYQQKPGKSPKALIYSASYRYSGVPSRFSGSGSGTDFTLTISSLQPEDFAEYFCQQYNWYPFTFGQGTKLEIKR
modifications: synthon WD on interchain Cys
With B13, in the experiment with Human full length B7-H3 [1], the “EC50 nM H1650” value was determined as 0.45 nM.

B14: huAb13v1-ZT (antibody, human IgG1, kappa, L234A L235A, V domains shown)
VH: EVQLQESGPGLVKPSETLSLTCAVTGYSITSGYSWHWIRQFPGNGLEWMGYIHSSGSTNYNPSLKSRISISRDTSKNQFFLKLSSVTAADTAVYYCAGYDDYFEYWGQGTTVTVSS
VL: DIQMTQSPSSLSASVGDRVTITCKASQNVGFNVAWYQQKPGKSPKALIYSASYRYSGVPSRFSGSGSGTDFTLTISSLQPEDFAEYFCQQYNWYPFTFGQGTKLEIKR
modifications: synthon ZT on interchain Cys
On to B14, for which the “EC50 nM H1650” value with Human full length B7-H3 [1] stood at 0.3 nM.

B15: huAb13v1-LB (antibody, human IgG1, kappa, L234A L235A, V domains shown)
VH: EVQLQESGPGLVKPSETLSLTCAVTGYSITSGYSWHWIRQFPGNGLEWMGYIHSSGSTNYNPSLKSRISISRDTSKNQFFLKLSSVTAADTAVYYCAGYDDYFEYWGQGTTVTVSS
VL: DIQMTQSPSSLSASVGDRVTITCKASQNVGFNVAWYQQKPGKSPKALIYSASYRYSGVPSRFSGSGSGTDFTLTISSLQPEDFAEYFCQQYNWYPFTFGQGTKLEIKR
modifications: synthon LB on interchain Cys
In the case of B15, the “EC50 nM H1650” value with Human full length B7-H3 [1] was more than 133 nM.

B16: huAb13v1-ZZ (antibody, human IgG1, kappa, L234A L235A, V domains shown)
VH: EVQLQESGPGLVKPSETLSLTCAVTGYSITSGYSWHWIRQFPGNGLEWMGYIHSSGSTNYNPSLKSRISISRDTSKNQFFLKLSSVTAADTAVYYCAGYDDYFEYWGQGTTVTVSS
VL: DIQMTQSPSSLSASVGDRVTITCKASQNVGFNVAWYQQKPGKSPKALIYSASYRYSGVPSRFSGSGSGTDFTLTISSLQPEDFAEYFCQQYNWYPFTFGQGTKLEIKR
modifications: synthon ZZ on interchain Cys
Regarding B16, the “EC50 nM H1650” value with Human full length B7-H3 [1] came out at 0.42 nM.
